Tested on: MS2 coat protein
Test: apparent KD of MS2 coat protein; higher = weaker reporter binding
Conditions: Eterna round: R107
Summary of the method: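 Normalised binding curves from single clusters were fitted, and the median fit for each design is given as apparent KD. The clusters held designed RNA switches transcribed on-chip from Illumina sequencing clusters. These were titrated with SNAP-549-labelled MS2 coat protein (twofold steps from 0.7 or 1.5 nM to 3 µM, 0.8–1.5 h to 10–20 min per step) in 100 mM Tris-HCl pH 7.5, 80 mM KCl, 4 mM MgCl2, without or with constant ligand.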

[1] = input ligand: theophylline 20 uM
[2] = input ligand: theophylline 2 mM
[3] = input ligand: tryptophan 2.4 mM

| Sequence | apparent KD of MS2 coat protein (input ligand: arginine 13.2 mM) | apparent KD of MS2 coat protein (input ligand: none) | apparent KD of MS2 coat protein [1] | apparent KD of MS2 coat protein [2] | apparent KD of MS2 coat protein [3] |
| --- | --- | --- | --- | --- | --- |
| AGUUGCGUUGGAAGGAGCGGCAUGUGUGGGCCUCCUUACAAUACAUGAGGAUCACCCAUGUGCCAGGUAGGUCGCCAACACAGGU [Tiedmaqu] | 47.9 nM | 40.2 nM | 79.8 nM | 96 nM | 54.8 nM |
| AGUAGCUGCCGAAGGAGCGCCGUGUUCCUACAUGAGGAUCACCCAUGUAGCGUUGGGUUACGGCAGGUAGGUCGCGGCGGAUAGG [Same State - Arginine B / B] | 30 nM | 34.3 nM | 119 nM | 73.8 nM | 119 nM |
| GAUGAACUAUUUGAUACCAGACUACAUGAGGAUCACCCAUGUGUGUUUAUACUUCAGUCAGUCCCUUGGCAGCAAAUAGUUUAUC [XTheo B #3] | 94.8 nM | – | 183 nM | – | 158 nM |
| ACACAUGAGGAUCACCCAUGUGCGCUGGAAGGAGCGCAGAAUCAUGCAGGUAGGUCGCCAGUGCCCUUUGAUAAAGGGAAAAGAG [Reor] | 52.2 nM | 43.3 nM | 99.7 nM | 76.9 nM | 64.3 nM |
| CGUGUCGUAACUGAUACCAGUGUACUGACAUGAGGAUCACCCAUGUUGGGUUUUGUUGUACACCCUUGGCAGCAGAAUCGAUACG [AstrosExyTheB#7] | 46.3 nM | – | 94 nM | – | 75.1 nM |
| UUGUUAUACGGAAGGAGCGUGUAAGAUUAAGAACAUGAGGAUCACCCAUGUUUUAAGGGAACACAGGUAGGUCGCCGUAUAGUGG [11.P] | 16.4 nM | 10 nM | 13.2 nM | 11.3 nM | 14.7 nM |
| UUUAUGGAGCUUUUAUUUACGAUUUCUGAUACCAGUGUUUCAUUUCACCCUUGGCAGCAGUGACAUGAGGAUCACCCAUGUAAUA [JR_Nu_SSTheophyA_Sub020] | 28.1 nM | – | 35.1 nM | – | 27.7 nM |
| GGUUAACAUGAGGAUCACCCAUGUCUUGAUACCAGUCGUUAUCUUGACCCUUGGCAGCAAGAUGACCGUUAGCAGCCGUCUUCUC [theeternabot_sameState_MS2_Theo_A_45] | 11.9 nM | – | 16.6 nM | – | 13.2 nM |
| CCAUAUGUAACUGAUACCAGUGUACUGACAUGAGGAUCACCCAUGUUGGGUUUUGUUGUACACCCUUGGCAGCAGAAUCAUAUGG [AstrosExyTheB#17] | 48.3 nM | – | 73.6 nM | – | 53.9 nM |
| CCUCACGAAAUCGAUGAAAGCAUGUGGCACCGAGGACCGGUACGGCCGCCACUCGCAUCCACACAUGAGGAUCACCCAUGUAAGA [theeternabot_exclusion_MS2_Trp_A_9] | 27.3 nM | – | 37.6 nM | 59.6 nM | – |
| UCUUACUUGGUAGAUACCAGCGUGUUAUCUUUCUUUUGACAUGAGGAUCACCCAUGUAUAUGCCCUUGGCAGCUGCGUAGUGUGU [#03 Same State - Theophylline B] | 21.6 nM | – | 35.7 nM | – | 27.4 nM |
| ACAUGAGGAUCACCCAUGUAAUUAACAGAAGGAGCGUGAUGGAUCACAGGUAGGUCGCUGUACUUAGAAAUAACUCUCAUGAAUA [JR_Nu_SSArginiA_Sub024] | 15.2 nM | 18.2 nM | 27.6 nM | 16.6 nM | 17.1 nM |
| UCGUGUGUUUCGGAUACCAGUGAAAUCGAUACAUGAGGAUCACCCAUGUGAGAGGAUGUACACCCUUGGCAGCUGGCUGUUGCGG [zezmullin] | 24 nM | – | 36.2 nM | – | 34.2 nM |
| ACAUGAAGAACAGCGGUGGGCGCGCUCGAUACCAGUAUUUUAACCUACCCUUGGCAGCGACAUGAGGAUCACCCAUGUGAGAUGA [XTheo A #7] | 18.5 nM | – | 26.8 nM | – | 16.6 nM |
| ACGUAAUGCAGAAGGAGCGUCGACCUCUUACAUGAGGAUCACCCAUGUUGCAUGGUUGUACGACAGGUAGGUCGCUGAAGUACGA [#05 Exclusion - Arginine B] | 34.5 nM | 38.2 nM | 89.5 nM | 68.1 nM | 65.4 nM |
| AGACAUGAGGAUCACCCAUGUAGUAUGGAUACCAGAUCCAGAUUUAUCCCUUGGCAGCUGUGGUACAGCGUUGCAUCGCUCCUAG [Exclusion - Theophylline A (Freestyle 13)] | 28.9 nM | – | 44.5 nM | – | 31.7 nM |
| AGACUGUCUUCGGACAGUCCGGACAGCCCGCGAGGACCGGUACGGCCGCCACUCGCGUGAGGAUCACCCAUGCGAGGCUGUCCGA [Omei Tryp A Exc A v1] | 27.5 nM | – | 40.1 nM | 46 nM | 69.9 nM |
| GUGGACAUGAGGAUCACCCAUGUAAGUCGGCGAGGACCGGUACGGCCGCCACUCGUGUUCUGUCUCAGCUCAAACGUAGCCGGAA [theeternabot_sameState_MS2_Trp_A_13] | 34.2 nM | – | 51.8 nM | 39.2 nM | – |
| ACAUGAGGAUCACCCAUGUCAGGGCACGAUACCAGCUGAUCCGAUGGCCCUUGGCAGCGUUACGUGUGGUCAUGAGGAUCACCCG [pjbmullin] | 55.5 nM | 59.3 nM | 101 nM | 76.8 nM | 64.7 nM |
| GAAGACAUGAGGAUCACCCAUGUUACACACCGAGGACCGGUACGGCCGCCACUCGUAGGCCCUCGGCUCACCUGAGAUCCGCAUC [theeternabot_sameState_MS2_Trp_A_11] | 17.5 nM | – | 31.8 nM | 31.9 nM | – |
| GCUGUUGCGGUGAGGUAUCCGGCUGUGGAAGGAGCGCGGAAGGCCGCAGGUAGGUCGCCACAUGAGGAUCACCCAUGUCGAUAUA [Aninati] | 48.7 nM | 16.9 nM | 80.6 nM | 28.3 nM | 16.8 nM |
| CGGUACAUGAGGAUCACCCAUGUGUCGGAUACCAGAGAGCCGUCUCUCCCUUGGCAGCUGGUUUUACAUGAGGAUCACCCAUGUG [Exclusion Theophylline A GF20] | 12.5 nM | – | 15.2 nM | – | 12.6 nM |
| UGUAACAUGAGGAUCACCCAUGUGAGUGAUACCAGACUAGUGUUGGUCCCUUGGCAGCACGCUGGGCGAGUGUGUAGUCUAUGCG [Same State - Theophylline A (Freestyle 17)] | 64.5 nM | – | 100 nM | – | 80.5 nM |
| UGGUACAUGAGGAUCACCCAUGUCCUCAUCCGAGGACCGGUACGGCCGCCACUCGAAAUUGCGAUCGGCACAAAACAAAUGCUUG [theeternabot_sameState_MS2_Trp_A_39] | 87.8 nM | – | 205 nM | 179 nM | – |
| CUGUACAUCUCGGCCGCCACUGACAUGAGGAUCACCCAUGUAGUGCCGAUGAGAGACUUAUCGGCCAGGACCGGGAGGUGUGCAG [SSTryp B #32] | 7.57 nM | 9.94 nM | 10.1 nM | 7.83 nM | 11.9 nM |
| UGACAUUGCUCAGAUACCAGACAUGAGGAUCACCCAUGUACCAAGAAAACGUACAAUAAUGUCCCUUGGCAGCUGAGCAAUGUCU [TheoBX 9 #MS2Left #Theo2] | 64.8 nM | – | 180 nM | – | 93.6 nM |
| AUGUCGUUGAAUACAGCGGCAUGGUGUGAUACCAGAAUGAUCAAAUUCCCUUGGCAGCAUCACAUGAGGAUCACCCAUGUUAAGG [SSTheo A #17] | 27.5 nM | – | 50 nM | – | 46.4 nM |
| CGAUCUUUCGAAAGAAGGAUCUUGUCUGAUACCAGAGACGAAAGUCUCCCUUGGCAGCAGUGCCAACAUGAGGAUCACCCAUGUU [Theophylline A 11] | 16 nM | – | 17.6 nM | – | 15.5 nM |
| CUGCCAUGCAGGGAUACCAGUGCGUUCAGAACAUGAGGAUCACCCAUGUCGUCUGCCGAUCACCCUUGGCAGCUCUGCAUGGCAG [#05 Same State - Theophylline B] | 9.22 nM | 9.69 nM | 9.45 nM | 9.73 nM | 9.91 nM |

— the supplement of paper PMC9170038
